In article PMC7889724:

Biological target: T1, recombinant full-length GST-UVR8 (Arabidopsis), Q9FN03
T1 chain: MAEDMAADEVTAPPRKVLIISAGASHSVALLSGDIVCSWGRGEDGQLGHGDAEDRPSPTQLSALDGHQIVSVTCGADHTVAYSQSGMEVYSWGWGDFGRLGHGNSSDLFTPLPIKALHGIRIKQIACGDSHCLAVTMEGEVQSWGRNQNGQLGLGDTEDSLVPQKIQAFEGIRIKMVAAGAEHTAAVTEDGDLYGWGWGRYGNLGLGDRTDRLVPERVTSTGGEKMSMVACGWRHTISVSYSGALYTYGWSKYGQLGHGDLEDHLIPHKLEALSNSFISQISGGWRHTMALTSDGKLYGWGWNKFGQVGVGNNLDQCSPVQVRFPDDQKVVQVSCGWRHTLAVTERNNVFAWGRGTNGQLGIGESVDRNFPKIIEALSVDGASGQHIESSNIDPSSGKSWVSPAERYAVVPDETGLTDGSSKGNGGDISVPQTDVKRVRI
Assay: SDS-PAGE of non-boiled protein
Settings: remark: other sources report otherwise

B1: recombinant full-length GST-UVR8, Q9FN03 1-440 (receptor)
chain: T1 chain
stoichiometry N: 2
